In the RNAGym collection of RNA variant scans (doi:10.1073/pnas.2313332121):
Variants at the floor of the assay were thinned out.

B1: TPR 5TU (parent)
chain: GGAUCUUCUCGAUCUAACAAAAAAGACAAAUCUGCCACAAAGCUUGAGAGCAUCUUCGGAUGCAGAGGCGGCAGCCUUCGGUGGCGCGAUAGCGCCAACGUUCUCAACUAUGACACGCAAAACGCGUGCUCCGUUGAAUGGAGUUUAUCAUG

Variants of: B1
Experiment: polymerase ribozyme fitness, log enrichment relative to wild type (log ratio); higher = more active; in vitro selection for triplet polymerase activity
Procedure, shortened: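 Frozen incubation at −7 °C formed the core of a single, triplicate in vitro selection round applied to PCR-built, transcribed mutant libraries of each subunit of a heterodimeric triplet polymerase ribozyme. Extended constructs were gel-excised, captured with streptavidin beads and amplified by RT-PCR, and input and output libraries were Illumina-sequenced with a filter of ≥10 input reads and ≥1 read per output. Fitness is the logarithm of genotype enrichment relative to wild-type enrichment, with inverse-variance-weighted replicate averaging, and the logarithm is base 2.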

| Variant | polymerase ribozyme fitness (log ratio) |
| --- | --- |
| G70U C85U G88C U145C | ≤ -4.2 |
| C69A U139C G140A U148A | ≤ -4.2 |
| A66G U111C | ≤ -4.2 |
| G68U C75A G81U G83A C95U C96U C116U | -1.31 |
| G68U G128U | ≤ -4.2 |
| C69U C72U | -1.99 |
| G70A A147U | -2.67 |
| G71U C93U U104G C149A | ≤ -4.2 |
| C69A G84A A89G U146C | -2.59 |
| C69A C72U | -3.05 |
| C69G C87A A91C G126A | ≤ -4.2 |
| C69A G94C | -0.673 |
| G68A | -3.29 |
| G68C | -3.92 |
| G68U | -3.71 |
| G67C A73U A91G G136A A137G | ≤ -4.2 |
| C69U C76G | ≤ -4.2 |
| G70C C76A C79U C87A | ≤ -4.2 |
| G67A C85G A106G C129U G140C G143A | ≤ -4.2 |
| C69U C116G | 0.325 |
| C69A C87A A106C G140A | ≤ -4.2 |

| Variant | polymerase ribozyme fitness (log ratio) |
| --- | --- |
| C69G C76G C96A A138G | ≤ -4.2 |
| G68U C79A U102G A119G | ≤ -4.2 |
| G70A U101C C103G C123U | ≤ -4.2 |
| G71A G94A | -2.94 |
| G67C C76U C96U C149U | ≤ -4.2 |
| A66G A73U G81A G92U U111C | ≤ -4.2 |
| G70C G88U A97C | ≤ -4.2 |
| G70U U139G | -2.93 |
| C69G A73C U77C G84A C118U C131A U139G | ≤ -4.2 |
| C69A A73C G84U U109C C118A | ≤ -4.2 |
| C69U C132G G140U | -1 |
| G71C G92U | -3.46 |
| G71C G92A | ≤ -4.2 |
| G70C G92U | -3.01 |
| G71C A91U C93U U104G | ≤ -4.2 |
| G67A U78G G86U C99U G141A | ≤ -4.2 |
| G68A C96U C132G | ≤ -4.2 |
| C69G A106C A137C | ≤ -4.2 |
| C69G C85U U101G | -1.25 |
| G68A C72U | -4.15 |
| C69A G117A | -0.631 |

| Variant | polymerase ribozyme fitness (log ratio) |
| --- | --- |
| G70C C75A U109G A137C | ≤ -4.2 |
| C69A A73G G92C | -1.54 |
| A66C G92C C96G A120G | -4.14 |
| G67A G84U | ≤ -4.2 |
| A66G U77A G83U U104A G117U | ≤ -4.2 |
| G70C G83C C105U C125U | ≤ -4.2 |
| A66C G92C C114U | ≤ -4.2 |
| C69U C118U | -1.4 |
| A66G G83U | -3.62 |
| G70A G88C U144C | ≤ -4.2 |
| C69G A119U | -1.72 |
| G70U G136A | -1.86 |
| A66C G74U G81C C87A C118A G124A | ≤ -4.2 |
| G71U A120G U146C | -2.36 |
| G70A G84U C116A | -4.13 |
| A66G C76U C85A C96U | ≤ -4.2 |
| G70A G100C | ≤ -4.2 |
| G67U C85G | ≤ -4.2 |
| G71C A119G | -3.01 |
| G68C U78C C96A A98G G143A | ≤ -4.2 |
| G67C G68A C85U C99A A115U | ≤ -4.2 |

| Variant | polymerase ribozyme fitness (log ratio) |
| --- | --- |
| G71U C116U | -2.4 |
| G67A C72A A142U | ≤ -4.2 |
| C69U C85G G141A | -2.66 |
| G68C C93G | ≤ -4.2 |
| C69G C85U G86A | -3.62 |
| A66U C76G C85A C95U U102G A113U C116A A142C | ≤ -4.2 |
| G68A C76A G86A U102C G124C G152A | ≤ -4.2 |
| A66C A91C | ≤ -4.2 |
| G68A C75U C85G G136U U148A | ≤ -4.2 |
| G71A U104C | -3.42 |
| G67C G84A U139A G140U | ≤ -4.2 |
| C69A U104G | -3.09 |
| G70A A110G A142G | -4.14 |
| C69U C95U | -1.47 |
| G67A C87U A107U C125G G126C | -4.14 |
| G70A G74C C125G U144G | ≤ -4.2 |
| G70C C103G A120G U127C U134C | ≤ -4.2 |
| G67A A91G U135G C149U | ≤ -4.2 |
| G67U C93U | -3.74 |
| G67C G88C C116G A122U G128U U144A | ≤ -4.2 |
